From the supplement of paper PMC10567573

B1: RHOBTB3 (parent)
chain: QLQSMPSRELASMNLDIVDLLKKA
B2: KRT71 (parent)
chain: ELRNVQDVVEDYKKRYEEEINKRT

Variants of: B1
Assay: protein stability index of a GFP-peptide fusion (GPS, HEK-293T) (PSI 1-6); higher = more stable
Details: c terminus: a fixed tail appended
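Further: lentivirally expressed fusions sorted by FACS into six bins by GFP to DsRed ratio, PSI derived from sequencing read proportions per bin multiplied by bin number.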

Protein stability index: each site, then its substitutions
L10: D 4.09 | Y 3.88 | W 3.25 | G 2.62 | F 3.41 | N 3.33 | R 3.71 | S 4.49 | H 3.24 | E 3.97 | V 3.6
S4: W 3.6 | G 3.82 | D 3.82 | K 3.08 | T 3.64 | V 3.11 | Y 3.75 | H 3.24 | F 3.19 | C 3.54
D16: M 2.53 | F 2.09 | A 2.15 | C 3.25 | N 2.88 | H 2.76 | E 3.63 | I 2.67 | P 2.75 | S 3.23 | G 3.63
V18: F 2.39 | L 3.37 | T 3.77 | K 3.21 | G 3.65 | C 3.69 | S 4.08 | H 3.5 | N 3.9 | P 3.21 | A 4.01
A11: D 3.75 | P 3.27 | E 3.73 | N 3.29 | V 3.27 | R 2.81 | W 2.79
L15: P 4.48 | K 4.45 | Y 3.87 | E 3.94 | R 3.58 | S 3.79 | I 3.66 | F 3.44 | M 3.86 | W 2.88
M13: H 3.59 | W 2.88 | G 3.76 | A 4 | P 4.01 | F 2.97 | N 4.17 | D 3.96 | T 3.38 | V 3.7 | R 3.61
I17: A 3.63 | D 4.23 | R 3.4 | C 3.87 | K 3.23 | N 3.88 | T 3.58 | G 3.46
Q1: R 3.72 | L 2.55 | H 2.92 | G 3.51 | E 3.01 | T 3.66 | A 3.43 | F 2.95 | P 4.72 | S 2.75 | W 2.62
A24: Y 3.35 | K 3.54 | P 3.92 | G 3.92 | R 3.11 | L 3.56 | W 4.13 | M 3.39 | Q 3.49 | F 3.41 | I 2.98 | E 4.56
R8: L 2.35 | P 3.22 | F 2.65 | W 2.58 | Q 3.85 | E 4.28 | I 2.33 | G 3.71 | V 3.83
S12: Y 2.95 | P 4.11 | T 3.75 | Q 4.1 | G 3.9 | C 3.33 | K 3.63 | N 3.06 | V 3.95 | R 2.13 | W 2.5 | I 3.02 | L 3.54
M5: S 3.76 | P 3.54 | L 3.88 | R 3.46 | W 2.07 | T 3.94 | E 3.54 | V 3.32
L2: Q 3.78 | P 4.72 | T 3.55 | V 2.77 | E 4.29 | F 3.04 | M 3.83 | I 3.16 | D 4
E9: R 2.15 | K 2.27 | N 3.4 | D 2.63 | P 2.78 | F 2.92 | L 2.7
L21: R 3.93 | A 3.47 | M 4.02 | N 3.27 | V 4.12 | K 3.01 | H 4.33 | W 3.35
K22: C 2.76 | T 3.74 | I 2.32 | M 2.9 | A 3.01 | D 4.32 | L 2.07 | Y 2.61 | G 3.75 | V 2.15 | H 3.67
L20: A 3.52 | H 3.63 | V 2.9 | M 3.75 | F 3.42 | P 4.31 | E 4.84
D19: V 2.16 | H 2.93 | T 2.85 | K 3.08 | P 2.83 | G 2.52 | Y 2.28 | R 2.99
K23: V 2.81 | E 3.69 | S 3.05 | P 3.22 | R 3.52 | Y 2.71 | L 2.58 | I 2.48 | Q 3.36 | W 1.3
P6: R 3.25 | W 1.85 | N 3.55 | Y 1.88 | Q 3 | H 2.05 | G 2.91
Q3: N 2.56 | F 2.62 | S 3.44 | E 3.7 | D 3.5 | I 3.18 | R 4.02 | L 2.68 | V 2.98 | G 3.85 | W 2.48 | P 4.39 | T 3.38
S7: P 4.46 | Q 3.77 | Y 3 | T 4.35 | H 4.55 | R 4.13
N14: V 1.9 | I 2.61 | Q 3.3 | L 2.6 | A 2.87 | S 3.31 | E 3.62 | T 3.27 | M 2.63

Variants of: B2
Assay: as above
Details: c terminus: a fixed tail appended

Protein stability index of substitutions, site by site:
E19: I 3.39 | G 3.65 | K 3.21
V9: R 2.95 | I 3.74 | K 3.48
D11: P 3.44 | K 2.82 | N 3.63 | L 3.95
I20: P 3.71 | T 3.65 | S 4.25
N21: Y 3.65 | S 4.27 | L 3.83 | V 4.3 | Q 3.51 | T 2.89
R3: H 2.78 | T 3.35
E17: F 3.93 | G 3.1 | D 3.23 | N 4.29 | K 3.24 | W 3.87
Y16: W 2.68 | H 3.75 | M 4.22 | N 4.1 | V 3.76
D7: Y 3.06 | F 3.28 | P 3.17 | Q 4.58 | L 3.54
E18: S 3.23 | P 3.98 | F 3.42 | Q 3.3 | A 3.54 | D 3.48 | Y 3.85 | T 3.93 | W 3.11
E1: G 2.72 | Q 4.03
K22: Q 4.35 | Y 3.43 | H 3.68 | T 4.15
T24: V 3.69 | M 3.54 | A 3.08 | L 3.58
R15: L 4.86 | F 3.67 | W 3.67 | A 4.63 | V 3.05 | K 3.22 | D 3.35 | M 4.38
V5: E 4.43 | A 3.8 | M 3.87 | Y 3.64 | G 3.92
Y12: W 3.98 | S 4.26 | P 3.53 | N 4.89 | L 3.22
L2: M 3.99
E10: R 4 | N 4.22 | M 3.57 | A 3.17 | Q 3.13 | I 3.54
N4: D 4.68 | R 4.48 | Y 3.59 | S 4.32 | W 3.17 | F 3.11
R23: C 3.84 | M 3.03 | Y 3.98 | K 4.2 | A 3.34 | Q 3.83 | T 4.69
Q6: W 3.41 | H 3.15 | F 4.1 | A 3.85 | C 2.77
K13: E 4.74
K14: Q 3.49 | V 4.45 | M 3.82
V8: Q 4.19 | A 3.37 | K 3.43 | C 3.77
